Experimental data as given in PMC10663500, “High-throughput analysis system of interaction kinetics for data-driven antibody design” (Scientific Reports, 2023).

B1: toripalimab Fab, wild type (Fab, V domains shown)
VH: QGQLVQSGAEVKKPGASVKVSCKASGYTFTDYEMHWVRQAPIHGLEWIGVIESETGGTAYNQKFKGRVTITADKSTSTAYMELSSLRSEDTAVYYCAREGITTVATTYYWYFDVWGQGTTVTVSS
VL: DVVMTQSPLSLPVTLGQPASISCRSSQSIVHSNGNTYLEWYLQKPGQSPQLLIYKVSNRFSGVPDRFSGSGSGTDFTLKISRVEAEDVGVYYCFQGSHVPLTFGQGTKLEIK
notes: toripalimab Fab heavy chain; toripalimab stands in PDB 6JBT; toripalimab Fab light chain; also called WT; source: Brevibacillus, culture supernatant (ammonium sulfate precipitate); not shown: 6xHis, C-terminal, kept; 6xHN, C-terminal, kept
B2: toripalimab Fab H.T102A (Fab, V domains shown)
VH: QGQLVQSGAEVKKPGASVKVSCKASGYTFTDYEMHWVRQAPIHGLEWIGVIESETGGTAYNQKFKGRVTITADKSTSTAYMELSSLRSEDTAVYYCAREGIATVATTYYWYFDVWGQGTTVTVSS
VL: DVVMTQSPLSLPVTLGQPASISCRSSQSIVHSNGNTYLEWYLQKPGQSPQLLIYKVSNRFSGVPDRFSGSGSGTDFTLKISRVEAEDVGVYYCFQGSHVPLTFGQGTKLEIK
notes: heavy chain of Sm3 with this change; numbers count from the chain's first residue; as the light chain of Sm3; source: Brevibacillus, culture supernatant (ammonium sulfate precipitate); not shown: 6xHis, C-terminal, kept; 6xHN, C-terminal, kept
B3: toripalimab Fab H.D113Y (Fab, V domains shown)
VH: QGQLVQSGAEVKKPGASVKVSCKASGYTFTDYEMHWVRQAPIHGLEWIGVIESETGGTAYNQKFKGRVTITADKSTSTAYMELSSLRSEDTAVYYCAREGITTVATTYYWYFYVWGQGTTVTVSS
VL: DVVMTQSPLSLPVTLGQPASISCRSSQSIVHSNGNTYLEWYLQKPGQSPQLLIYKVSNRFSGVPDRFSGSGSGTDFTLKISRVEAEDVGVYYCFQGSHVPLTFGQGTKLEIK
notes: as for B2
B4: toripalimab Fab L.H31Y (Fab, V domains shown)
VH: QGQLVQSGAEVKKPGASVKVSCKASGYTFTDYEMHWVRQAPIHGLEWIGVIESETGGTAYNQKFKGRVTITADKSTSTAYMELSSLRSEDTAVYYCAREGITTVATTYYWYFDVWGQGTTVTVSS
VL: DVVMTQSPLSLPVTLGQPASISCRSSQSIVYSNGNTYLEWYLQKPGQSPQLLIYKVSNRFSGVPDRFSGSGSGTDFTLKISRVEAEDVGVYYCFQGSHVPLTFGQGTKLEIK
notes: as the heavy chain of Sm3; light chain of Sm3 with this change; numbers count from the chain's first residue; source: Brevibacillus, culture supernatant (ammonium sulfate precipitate); not shown: 6xHis, C-terminal, kept; 6xHN, C-terminal, kept
B5: toripalimab Fab H.G100Y (Fab, V domains shown)
VH: QGQLVQSGAEVKKPGASVKVSCKASGYTFTDYEMHWVRQAPIHGLEWIGVIESETGGTAYNQKFKGRVTITADKSTSTAYMELSSLRSEDTAVYYCAREYITTVATTYYWYFDVWGQGTTVTVSS
VL: DVVMTQSPLSLPVTLGQPASISCRSSQSIVHSNGNTYLEWYLQKPGQSPQLLIYKVSNRFSGVPDRFSGSGSGTDFTLKISRVEAEDVGVYYCFQGSHVPLTFGQGTKLEIK
notes: as for B2
B6: toripalimab Fab H.W110A (Fab, V domains shown)
VH: QGQLVQSGAEVKKPGASVKVSCKASGYTFTDYEMHWVRQAPIHGLEWIGVIESETGGTAYNQKFKGRVTITADKSTSTAYMELSSLRSEDTAVYYCAREGITTVATTYYAYFDVWGQGTTVTVSS
VL: DVVMTQSPLSLPVTLGQPASISCRSSQSIVHSNGNTYLEWYLQKPGQSPQLLIYKVSNRFSGVPDRFSGSGSGTDFTLKISRVEAEDVGVYYCFQGSHVPLTFGQGTKLEIK
notes: as for B2
B7: toripalimab Fab H.Y108A (Fab, V domains shown)
VH: QGQLVQSGAEVKKPGASVKVSCKASGYTFTDYEMHWVRQAPIHGLEWIGVIESETGGTAYNQKFKGRVTITADKSTSTAYMELSSLRSEDTAVYYCAREGITTVATTAYWYFDVWGQGTTVTVSS
VL: DVVMTQSPLSLPVTLGQPASISCRSSQSIVHSNGNTYLEWYLQKPGQSPQLLIYKVSNRFSGVPDRFSGSGSGTDFTLKISRVEAEDVGVYYCFQGSHVPLTFGQGTKLEIK
notes: as for B2
B8: toripalimab Fab H.Y111A (Fab, V domains shown)
VH: QGQLVQSGAEVKKPGASVKVSCKASGYTFTDYEMHWVRQAPIHGLEWIGVIESETGGTAYNQKFKGRVTITADKSTSTAYMELSSLRSEDTAVYYCAREGITTVATTYYWAFDVWGQGTTVTVSS
VL: DVVMTQSPLSLPVTLGQPASISCRSSQSIVHSNGNTYLEWYLQKPGQSPQLLIYKVSNRFSGVPDRFSGSGSGTDFTLKISRVEAEDVGVYYCFQGSHVPLTFGQGTKLEIK
notes: as for B2
B9: toripalimab Fab H.I101Y (Fab, V domains shown)
VH: QGQLVQSGAEVKKPGASVKVSCKASGYTFTDYEMHWVRQAPIHGLEWIGVIESETGGTAYNQKFKGRVTITADKSTSTAYMELSSLRSEDTAVYYCAREGYTTVATTYYWYFDVWGQGTTVTVSS
VL: DVVMTQSPLSLPVTLGQPASISCRSSQSIVHSNGNTYLEWYLQKPGQSPQLLIYKVSNRFSGVPDRFSGSGSGTDFTLKISRVEAEDVGVYYCFQGSHVPLTFGQGTKLEIK
notes: as for B2
B10: toripalimab Fab H.I101A (Fab, V domains shown)
VH: QGQLVQSGAEVKKPGASVKVSCKASGYTFTDYEMHWVRQAPIHGLEWIGVIESETGGTAYNQKFKGRVTITADKSTSTAYMELSSLRSEDTAVYYCAREGATTVATTYYWYFDVWGQGTTVTVSS
VL: DVVMTQSPLSLPVTLGQPASISCRSSQSIVHSNGNTYLEWYLQKPGQSPQLLIYKVSNRFSGVPDRFSGSGSGTDFTLKISRVEAEDVGVYYCFQGSHVPLTFGQGTKLEIK
notes: as for B2
B11: toripalimab Fab H.T103Y (Fab, V domains shown)
VH: QGQLVQSGAEVKKPGASVKVSCKASGYTFTDYEMHWVRQAPIHGLEWIGVIESETGGTAYNQKFKGRVTITADKSTSTAYMELSSLRSEDTAVYYCAREGITYVATTYYWYFDVWGQGTTVTVSS
VL: DVVMTQSPLSLPVTLGQPASISCRSSQSIVHSNGNTYLEWYLQKPGQSPQLLIYKVSNRFSGVPDRFSGSGSGTDFTLKISRVEAEDVGVYYCFQGSHVPLTFGQGTKLEIK
notes: as for B2
B12: toripalimab Fab H.E33Y (Fab, V domains shown)
VH: QGQLVQSGAEVKKPGASVKVSCKASGYTFTDYYMHWVRQAPIHGLEWIGVIESETGGTAYNQKFKGRVTITADKSTSTAYMELSSLRSEDTAVYYCAREGITTVATTYYWYFDVWGQGTTVTVSS
VL: DVVMTQSPLSLPVTLGQPASISCRSSQSIVHSNGNTYLEWYLQKPGQSPQLLIYKVSNRFSGVPDRFSGSGSGTDFTLKISRVEAEDVGVYYCFQGSHVPLTFGQGTKLEIK
notes: as for B2
B13: toripalimab Fab H.H35A (Fab, V domains shown)
VH: QGQLVQSGAEVKKPGASVKVSCKASGYTFTDYEMAWVRQAPIHGLEWIGVIESETGGTAYNQKFKGRVTITADKSTSTAYMELSSLRSEDTAVYYCAREGITTVATTYYWYFDVWGQGTTVTVSS
VL: DVVMTQSPLSLPVTLGQPASISCRSSQSIVHSNGNTYLEWYLQKPGQSPQLLIYKVSNRFSGVPDRFSGSGSGTDFTLKISRVEAEDVGVYYCFQGSHVPLTFGQGTKLEIK
notes: as for B2
B14: toripalimab Fab L.H31A (Fab, V domains shown)
VH: QGQLVQSGAEVKKPGASVKVSCKASGYTFTDYEMHWVRQAPIHGLEWIGVIESETGGTAYNQKFKGRVTITADKSTSTAYMELSSLRSEDTAVYYCAREGITTVATTYYWYFDVWGQGTTVTVSS
VL: DVVMTQSPLSLPVTLGQPASISCRSSQSIVASNGNTYLEWYLQKPGQSPQLLIYKVSNRFSGVPDRFSGSGSGTDFTLKISRVEAEDVGVYYCFQGSHVPLTFGQGTKLEIK
notes: as for B4
B15: toripalimab Fab H.F112A (Fab, V domains shown)
VH: QGQLVQSGAEVKKPGASVKVSCKASGYTFTDYEMHWVRQAPIHGLEWIGVIESETGGTAYNQKFKGRVTITADKSTSTAYMELSSLRSEDTAVYYCAREGITTVATTYYWYADVWGQGTTVTVSS
VL: DVVMTQSPLSLPVTLGQPASISCRSSQSIVHSNGNTYLEWYLQKPGQSPQLLIYKVSNRFSGVPDRFSGSGSGTDFTLKISRVEAEDVGVYYCFQGSHVPLTFGQGTKLEIK
notes: as for B2
B16: toripalimab Fab H.D113A (Fab, V domains shown)
VH: QGQLVQSGAEVKKPGASVKVSCKASGYTFTDYEMHWVRQAPIHGLEWIGVIESETGGTAYNQKFKGRVTITADKSTSTAYMELSSLRSEDTAVYYCAREGITTVATTYYWYFAVWGQGTTVTVSS
VL: DVVMTQSPLSLPVTLGQPASISCRSSQSIVHSNGNTYLEWYLQKPGQSPQLLIYKVSNRFSGVPDRFSGSGSGTDFTLKISRVEAEDVGVYYCFQGSHVPLTFGQGTKLEIK
notes: as for B2
B17: toripalimab Fab H.T103A (Fab, V domains shown)
VH: QGQLVQSGAEVKKPGASVKVSCKASGYTFTDYEMHWVRQAPIHGLEWIGVIESETGGTAYNQKFKGRVTITADKSTSTAYMELSSLRSEDTAVYYCAREGITAVATTYYWYFDVWGQGTTVTVSS
VL: DVVMTQSPLSLPVTLGQPASISCRSSQSIVHSNGNTYLEWYLQKPGQSPQLLIYKVSNRFSGVPDRFSGSGSGTDFTLKISRVEAEDVGVYYCFQGSHVPLTFGQGTKLEIK
notes: as for B2
B18: toripalimab Fab H.T102Y (Fab, V domains shown)
VH: QGQLVQSGAEVKKPGASVKVSCKASGYTFTDYEMHWVRQAPIHGLEWIGVIESETGGTAYNQKFKGRVTITADKSTSTAYMELSSLRSEDTAVYYCAREGIYTVATTYYWYFDVWGQGTTVTVSS
VL: DVVMTQSPLSLPVTLGQPASISCRSSQSIVHSNGNTYLEWYLQKPGQSPQLLIYKVSNRFSGVPDRFSGSGSGTDFTLKISRVEAEDVGVYYCFQGSHVPLTFGQGTKLEIK
notes: as for B2

These binders were tested against T1, human programmed cell death protein 1 (hPD-1) C93S (aa 24-167) (Homo sapiens, UniProt Q15116, C93S) (assay: SPR; Carterra LSA; Fab from the ammonium sulfate precipitate of the culture supernatant immobilised on a NiHC200M chip; hPD-1 (1-1024 nM) or mPD-1-Fc (4-1024 nM) as analyte, fourfold dilution series, no regeneration; HBS-EP pH 7.4, 25 °C; medians over the spots of a construct, KD = koff/kon). Settings: one partner purified.
T1 construct: made as a fusion with a TEV site and human Fc; the Fc was cut off with TEV protease; source: Expi293F, purified (Protein A, TEV cleavage of Fc, SEC; monomer fractions); not shown: Fc (human), C-terminal, cleaved
T1 sequence (Q15116 24-167 C93S): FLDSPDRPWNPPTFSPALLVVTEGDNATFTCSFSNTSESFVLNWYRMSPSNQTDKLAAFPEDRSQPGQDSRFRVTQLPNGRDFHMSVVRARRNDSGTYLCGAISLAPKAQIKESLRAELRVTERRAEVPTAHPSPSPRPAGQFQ
Procedure, shortened: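 On a Carterra LSA at 25 °C, duplicate captures of Fabs were made on a NiHC200M chip; the Fabs came from Brevibacillus culture supernatants, were precipitated with ammonium sulfate and were redissolved in HBS-EP. Fourfold series of human PD-1 (1–1024 nM) or mouse PD-1-Fc (4–1024 nM) were passed over without regeneration, with 10 min association and 5 min dissociation. Binders that were not confirmed were assigned kon 10^3 […] and koff 10^−2 s^−1. The kdka model, run with slow- or fast-dissociation settings and keeping the better fit, gave the rates, and KD was taken as koff/kon from the median values for each construct.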
B1 showed a Kd of under 0.841 nM, a koff of under 1e-05 s⁻¹ and a kon of 11900 M⁻¹ s⁻¹. For B2, the Kd was 65.9 nM, the koff was 0.000404 s⁻¹ and the kon was 6130 M⁻¹ s⁻¹. Work on B3 yielded a Kd of under 1.6 nM, a koff of under 1e-05 s⁻¹ and a kon of 6230 M⁻¹ s⁻¹. Binder B4 has a Kd of 17.2 nM, a koff of 0.000663 s⁻¹ and a kon of 38600 M⁻¹ s⁻¹. For B5, the Kd was 107 nM, the koff was 0.00166 s⁻¹ and the kon was 15500 M⁻¹ s⁻¹. B6 showed a Kd of under 2.43 nM, a koff of under 1e-05 s⁻¹ and a kon of 4120 M⁻¹ s⁻¹. Work on B7 yielded a Kd of 48.6 nM, a koff of 0.000235 s⁻¹ and a kon of 4840 M⁻¹ s⁻¹. For B8, the Kd was 1610 nM, the koff was 0.0601 s⁻¹ and the kon was 37200 M⁻¹ s⁻¹. B9 was tested, and the Kd was 54.5 nM, the koff was 0.000227 s⁻¹ and the kon was 4170 M⁻¹ s⁻¹. For B10, the Kd was 107 nM, the koff was 0.000592 s⁻¹ and the kon was 5550 M⁻¹ s⁻¹. For B11, the Kd was under 2.91 nM, the koff was under 1e-05 s⁻¹ and the kon was 3430 M⁻¹ s⁻¹. B12 showed a Kd of 430 nM, a koff of 0.00629 s⁻¹ and a kon of 14600 M⁻¹ s⁻¹. B13 was tested, and the Kd was 2470 nM, the koff was 0.00804 s⁻¹ and the kon was 3250 M⁻¹ s⁻¹. B14 was tested, and the Kd was 57.3 nM, the koff was 0.000589 s⁻¹ and the kon was 10300 M⁻¹ s⁻¹. For B15, the Kd was 6.2 nM, the koff was 2.72e-05 s⁻¹ and the kon was 4390 M⁻¹ s⁻¹. B16 gave a Kd of under 1.79 nM, a koff of under 1e-05 s⁻¹ and a kon of 5600 M⁻¹ s⁻¹. With B17 the Kd was under 1.2 nM, the koff was under 1e-05 s⁻¹ and the kon was 8350 M⁻¹ s⁻¹. For B18, the Kd was 200 nM, the koff was 0.00148 s⁻¹ and the kon was 7420 M⁻¹ s⁻¹.
